The text below walks through data of US5981483.

The term koff denotes the first-order rate constant of dissociation. As a reminder, the kon is a measure of how fast the partners come together. What is called Kd is the free concentration of one partner at which half of the binding sites on the other are occupied at equilibrium, for simple one-to-one binding.

Assay [1] has as its target TGF-β2. Briefly: SPR (BIAcore); analyte over immobilized cytokine.
The target in assay [2] is BMP-6. Briefly: SPR (BIAcore); analyte over immobilized cytokine. On the technique in general: SPR reads the build-up and loss of mass on a sensor chip optically.
Assay [3] deals with BMP-4. Briefly: SPR (BIAcore); analyte over immobilized cytokine.
The target in assay [4] is purified human TGF-β1 (human) (UniProt P01137).
Assay [5] shares this target. This is another data set of the same source.
For assay [6], the target named is TGF-β in dexamethasone-treated rat bone marrow cultures (rat).
Assay [7] has as its target TGF-β2. Briefly: SPR (BIAcore); analyte over immobilized cytokine; repeated calculation.
Assay [8] deals with BMP-6. Described as above.
The target in assay [9] is BMP-4. The assay is described as above.
The target of assay [10] is purified human TGF-β1 (human) (UniProt P01137). This is another data set of the same source.
Assay [11] addresses active TGF-β produced by Mv1Lu cells (mink).
Assay [12] concerns the target T1, recombinant human BMP-2 (human) (UniProt P12643).
T1 sequence: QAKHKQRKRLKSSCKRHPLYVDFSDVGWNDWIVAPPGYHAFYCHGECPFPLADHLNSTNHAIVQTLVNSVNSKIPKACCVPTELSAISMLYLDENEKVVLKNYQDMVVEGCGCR

Several values for one entry are separate records, joined by “and”; a condition that tells them apart may be missing. Identical values can stand only once.

Chain of purified human TGF-β1 (human) (P01137 279-390 limits assumed): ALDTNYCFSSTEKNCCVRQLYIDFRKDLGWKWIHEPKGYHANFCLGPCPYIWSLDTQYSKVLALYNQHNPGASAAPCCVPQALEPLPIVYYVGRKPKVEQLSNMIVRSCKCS
Chain of BMP-6 (P22004 375-513): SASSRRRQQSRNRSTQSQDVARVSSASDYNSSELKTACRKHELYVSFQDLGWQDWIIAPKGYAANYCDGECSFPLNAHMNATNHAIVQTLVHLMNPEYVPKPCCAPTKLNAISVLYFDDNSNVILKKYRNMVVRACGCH

B1: bovine fetuin (protein)
chain: IPLDPVAGYKEPACDDPDTEQAALAAVDYINKHLPRGYKHTLNQIDSVKVWPRRPTGEVYDIEIDTLETTCHVLDPTPLANCSVRQQTQHAVEGDCDIHVLKQDGQFSVLFTKCDSSPDSAEDVRKLCPDCPLLAPLNDSRVVHAVEVALATFNAESNGSYLQLVEISRAQFVPLPVSVSVEFAVAATDCIAKEVVDPTKCNLLAEKQYGFCKGSVIQKALGGEDVRVTCTLFQTQPVIPQPQPDGAEAEAPSAVPDAAGPTPSAAGPPVASVVVGPSVVAVPLPLHRAHYDLRHTFSGVASVESSSGEAFHVGKTPIVGQPSIPGGPVRLCPGRIRYFKI
On to B1, for which the koff was 0.0032 s⁻¹ with TGF-β2 [1]; 0.0025 s⁻¹ with BMP-6 [2]; 0.00058 s⁻¹ with BMP-4 [3]; 0.0024 s⁻¹ with TGF-β2 [7]; 0.0021 s⁻¹ with BMP-6 [8]; 0.00051 s⁻¹ with BMP-4 [9]. Moreover, the kon with TGF-β2 [1] was 550 M⁻¹ s⁻¹; with BMP-6 [2], 2900 M⁻¹ s⁻¹; with BMP-4 [3], 4200 M⁻¹ s⁻¹; with TGF-β2 [7], 550 M⁻¹ s⁻¹; in the assay with BMP-6 [8] it was 2900 M⁻¹ s⁻¹; in the assay with BMP-4 [9] it was 4200 M⁻¹ s⁻¹. Moreover, the Kd is 860 nM with BMP-6 [2]; 140 nM in the assay with BMP-4 [3]; 4.4 µM in the assay with TGF-β2 [7]; 710 nM with BMP-6 [8]; 120 nM in the assay with BMP-4 [9]. Besides, in assay [4], the percent neutralization of the antiproliferative activity of TGF-β1 (3H-thymidine incorporation, Mv1Lu cells) was determined as 150%. This molecule registered an IC50, inhibition of the anti-proliferative activity of TGF-β1 (12 pM) on Mv1Lu cells in [5] of 4.2e-06 M. Besides, in assay [6], the IC50, inhibition of calcium-deposition is 10 µM. For the same molecule, the IC50, block of the anti-proliferative activity of exogenously added TGF-β1 (18 pM) on Mv1Lu cells (FIG. 12) in assay [10] worked out at 3e-06 M. The molecule further gave a proliferation of Mv1Lu cells without added cytokine (3H-thymidine incorporation) in [11] of 8 pM. Besides, the IC50, reversal of BMP-2 inhibition of Mv1Lu cell growth in assay [12] was 2 µM and 5 µM.
